Measurements reported in patent US20150376276A1 (Seagen, published 2015).
Blank lines part the entries; values can stand above or below the molecule they belong to.

Assays:
[1] = biological target: T1, human NTB-A (human, UniProt Q96DU3 22-332); assay: flow cytometry competition on NTB-A positive Ramos cells; competitor: AF647-labelled 11A1 at 0.0188 ug/mL; half of the partial effect, not 50% of maximum binding
T1 construct: whole, on cells; also called SLAMF6; hNTB-A
T1 sequence (looked up): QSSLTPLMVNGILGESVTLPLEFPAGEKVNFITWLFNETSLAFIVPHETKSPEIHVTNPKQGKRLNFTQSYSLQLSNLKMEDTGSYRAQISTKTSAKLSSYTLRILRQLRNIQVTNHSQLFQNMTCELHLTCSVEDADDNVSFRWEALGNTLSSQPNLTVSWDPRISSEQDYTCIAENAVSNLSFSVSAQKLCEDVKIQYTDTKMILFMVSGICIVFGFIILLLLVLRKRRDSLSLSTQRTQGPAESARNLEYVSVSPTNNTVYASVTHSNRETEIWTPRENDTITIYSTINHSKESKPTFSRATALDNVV

[2] = biological target: T1, human NTB-A; assay: flow cytometry, saturation binding of Alexa Fluor 647-labelled antibody on Ramos cells
Protocol: Antigen positive Ramos cells were plated at 1×10⁵ cells per well in a 96 well V-bottom plate (Thermo Scientific, Rochester, N.Y.). Three-fold serial dilutions of 2× concentrated antibodies were prepared in FACs buffer (PBS+2% fetal bovine serum+0.02% azide) and were added to the cells in duplicate. The antibody solutions were incubated with cells for 1 hour on ice, protected from light. The cells were washed twice with FACs buffer and analyzed on the LSRII flow cytometer (BD BioSciences, San Jose, Calif.). KD values were determined with GraphPad Prism software (La Jolla, Calif.).

[3] = biological target: T1, human NTB-A; assay: flow cytometry competition on NTB-A positive Ramos cells; competitor: AF647-labelled 11A1 at 0.0188 ug/mL
From the text: To evaluate whether an antibody competes for specific binding to human NTB-A with a mAb comprising the VH and VL domains of the 11A1 mAb (i.e., a VH domain having the amino acid sequence as shown in residues 20-135 of SEQ ID NO:1 and a VL domain having the amino acid sequence as shown in residues 21-140 of SEQ ID NO:2), a competitive binding assay as follows is used.
This assay utilizes a “reference antibody” comprising the 11A1 murine IgG1 antibody (i.e., the 11A1 VH and VL domains in the bivalent structure of a native antibody). NTB-A positive Ramos cells are plated at 2×10⁵ cells per well in a 96 well V-bottom plate (Thermo Scientific, Rochester, N.Y.). […] The antibody solutions are incubated with cells for 1 hour on ice, protected from light. The cells are washed twice with FACs buffer and analyzed on the LSRII flow cytometer (BD BioSciences, San Jose, Calif.). Data are presented as percent of maximum binding. The sample antibody “competes with” the labeled reference antibody for specific binding to NTB-A if the sample antibody reduces the reference antibody's binding to NTB-A to levels less than 45% of maximum binding (i.e., 0 to 45%) at a concentration of 10 μg/ml of unlabeled sample antibody. […]

IC50 (read off the curve) [1]: 100 ng/mL
Molecule: NT-7 antibody (clone: NT-7 (Biolegend #317208))

Kd [2]: 0.16 nM
IC50 (read off the curve) [3]: ~80 ng/mL
B1: 26B7 murine IgG1 antibody (antibody, V domains shown)
VH: QVQLLQPGAEVVKPGTSVKLSCKASGYNFTIYWINWVKLRPGQGLEWIGDIHPGRGNTNLNEKFKTKATLTVDTSSSTAYMQLNSLAFEDSALYYCAREDEDWYFDVWGAGTTVTVSS
VL: DIQMNQSPSSLSASLGDTITITCRASQGISIWFNWYQQKSGNIPKLLIYKTSNLHTGVPPRFSGSGSGTDFTLTISSLQPEDIATYYCLQSQSYPYTFGGGTKLEIKR
notes: Murine IgG1; also called mAb 26B7
